For one protein, Tm results are on record in FireProtDB (doi:10.1073/pnas.0910421107).

For the data set the following is noted: Escherichia coli (strain K12), pH 7.6, Thermal, MOPS 25 mM, Potassium chloride 100 mM, whole UniProt chain shown.

B1: Ribose import binding protein RbsB wild type, P02925 (protein)
chain: MNMKKLATLVSAVALSATVSANAMAKDTIALVVSTLNNPFFVSLKDGAQKEADKLGYNLVVLDSQNNPAKELANVQDLTVRGTKILLINPTDSDAVGNAVKMANQANIPVITLDRQATKGEVVSHIASDNVLGGKIAGDYIAKKAGEGAKVIELQGIAGTSAARERGEGFQQAVAAHKFNVLASQPADFDRIKGLNVMQNLLTAHPDVQAVFAQNDEMALGALRALQTAGKSDVMVVGFDGTPDGEKAVNDGKLAATIAQLPDQIGAKGVETADKVLKGEKVQAKYPVDLKLVVKQ
Regarding B1, the Tm amounted to 62.6 °C (Activity) and 62.6 °C (Quantitative cysteine reactivity).
